Values of other authors in US8443799B2, “Dry powder inhalation system for transpulmonary administration” (Otsuka Pharmaceutical Co., Ltd., priority 2001, dated 2013).

Details: disclosure in WO 95/31479

Substance: interferon
- deactivation during the spray drying process: about 25%
